Values quoted from earlier work as cited in PMC12583094, “A novel antioxidant peptide from black soybean [Glycine max (L.) Merr.] with verified MPO interaction and multi-scale antioxidant activity” (Frontiers in Nutrition, 2025).

Target: MPO (Homo sapiens) (UniProt P05164)
Experiment: SPR

Chain of MPO (Homo sapiens) (P05164 165-273, chain 1 of 2): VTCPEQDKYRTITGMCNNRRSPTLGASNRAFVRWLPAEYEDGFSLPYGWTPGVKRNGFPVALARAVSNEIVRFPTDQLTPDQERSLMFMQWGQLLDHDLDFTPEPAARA
Chain of MPO (Homo sapiens) (P05164 279-745, chain 2 of 2): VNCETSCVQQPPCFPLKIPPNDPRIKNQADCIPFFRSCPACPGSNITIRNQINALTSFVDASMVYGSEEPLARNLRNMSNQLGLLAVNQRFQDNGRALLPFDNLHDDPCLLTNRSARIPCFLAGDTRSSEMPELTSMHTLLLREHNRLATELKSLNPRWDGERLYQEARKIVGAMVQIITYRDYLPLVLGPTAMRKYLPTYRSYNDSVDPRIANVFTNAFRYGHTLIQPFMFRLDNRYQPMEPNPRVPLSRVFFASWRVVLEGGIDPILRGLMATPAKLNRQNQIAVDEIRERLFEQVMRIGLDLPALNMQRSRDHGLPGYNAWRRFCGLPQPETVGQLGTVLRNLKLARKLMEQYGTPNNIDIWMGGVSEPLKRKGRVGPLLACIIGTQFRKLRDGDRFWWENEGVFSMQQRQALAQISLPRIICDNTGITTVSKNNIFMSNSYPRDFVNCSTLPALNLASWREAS

In the case of SPIN (from UniProt A0A0H3K703), the Kd is given as 10 nM.
